What is called Kd is a measure of binding affinity in units of concentration. Higher therefore signals a looser complex. Usually EC50 stands for the midpoint of the concentration-response curve. The low end stands for higher potency in that assay, the high end for lower potency in that assay.

The values that follow come from patent publication US20060286035A1 (CYTOS BIOTECHNOLOGY, published 2006).

In experiment [1] the target is T1, T-cadherin (mouse, UniProt Q9WTR5 139-693).
T1 construct: whole, on cells; also called adiponectin receptor; pGF-T-cadherin
T1 sequence (looked up): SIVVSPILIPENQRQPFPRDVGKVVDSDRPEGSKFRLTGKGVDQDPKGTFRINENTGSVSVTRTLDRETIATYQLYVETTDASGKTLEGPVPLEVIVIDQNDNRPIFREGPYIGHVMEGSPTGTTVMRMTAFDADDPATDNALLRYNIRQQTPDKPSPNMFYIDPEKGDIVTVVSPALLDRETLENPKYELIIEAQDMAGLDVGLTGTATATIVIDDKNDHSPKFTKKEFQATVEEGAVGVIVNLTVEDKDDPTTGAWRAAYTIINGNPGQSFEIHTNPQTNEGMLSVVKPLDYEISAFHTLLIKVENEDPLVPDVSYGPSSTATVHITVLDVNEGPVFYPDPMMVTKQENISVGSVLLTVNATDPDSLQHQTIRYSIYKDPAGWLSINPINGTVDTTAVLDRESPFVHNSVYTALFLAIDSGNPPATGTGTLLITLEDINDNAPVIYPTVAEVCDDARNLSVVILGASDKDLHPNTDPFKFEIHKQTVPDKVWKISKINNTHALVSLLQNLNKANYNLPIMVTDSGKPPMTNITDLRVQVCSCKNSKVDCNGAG
Kind of experiment: flow cytometry titration on 293-EBNA cells transfected with pGF-T-cadherin; half-maximal concentration divided by the molecular weight. The protocol: (§1) 293-EBNA cells were transfected with pGF-T-cadherin. After two days the cells were harvested and stained with decreasing amounts of Acrp30-FLAG-C (50, 25, 12.5, 6.3, 3.1, 1.6, 0.8, 0.4 and 0 μg/ml) as described in example 6. To evaluate the dissociation constant, the geometric mean fluorescence (GMFl) of the GFP positive population was determined using FACS Winmdi software. The GMFl was then normalized as follows: (GMFL of the sample minus GMFl of samples stained with secondary reagents only) divided by maximal GMFL. The protein concentration is shown on the X axis and the normalised GMFL is shown on the Y axis.
(§2) In order to determine the dissociation constant of the adiponectin-T-cadherin interaction, 293-EBNA cells were transfected with pGF-T-cadherin as described in example 6. […] The cells were then analysed by FACS using a FACS Calibur (Becton Dickinson). To determine the binding affinity, the geometric mean fluorescence of the GFP positive population was determined using FACS WINmdi software. The geometric mean fluorescence was then normalised by deducing the mean fluorescence of the sample which was stained with the secondary reagents only from the different samples and then all the values were divided by the maximal fluorescence. The normalised values for the mean fluorescence were than plotted against the concentration of Acrp30-FLAG-C. […]
(Flow cytometry measures light scatter and fluorescence of single cells or particles in a stream.)

In experiment [2] the target is T1, T-cadherin. Briefly: flow cytometry titration on 293-EBNA cells transfected with pGF-T-cadherin; normalised geometric mean fluorescence of the GFP positive population. As for the experimental part:
as §1, §2

B1: Acrp30-FLAG-C (ligand)
chain: DADPEDDVTTTEELAPALVPPPKGTCAGWMAGIPGHPGHNGTPGRDGRDGTPGEKGEKGDAGLLGPKGETGDVGVTGAEGPRGFPGTPGRKGEPGEAAYMYRSAFSVGLETRVTVPNVPIRFTKIFYNQQNHYDGSTGKFYCNIPGLYYFSYHITVYMKDVKVSLFKKDKAVLFTYDQYQEKNVDQASGSVLLHLEVGDQVWLQVYGDGDHNGLYADNVNDSTFTGFLLYHDTNSLDDYKDDDDK
notes: The molecular weight used for the Kd is 26546 g/mol (monomer); Three bands on SDS-PAGE from differential glycosylation; also called Adiponectin-bait Acrp30-FLAG-C; adiponectin
For B1, in the experiment with T-cadherin [1], the Kd is 83 nM. Besides, a half-maximal response with T-cadherin [2] (EC50) required 2.2 µg/mL.
